Measurements published in PMC3017781, “Structure-function relationships of wheat flavone O-methyltransferase: Homology modeling and site-directed mutagenesis” (BMC Plant Biology, 2010).
Where a chain is given by its changes, count along the chain named. Names and notes keep the numbering of the source.

B1: TaOMT2 (Triticum aestivum; V309I) (protein)
chain: MGSIAAGADEDACMYALQLVSSSILPMTLKNAIELGLLETLMAAGGKFLTPAEVAAKLPSAANPEAPDMVDRMLRLLASYNVVSCRTEDGKDGRLSRRYGAAPVCKYLTPNEDGVSMSALALMNQDKVLMESWYYLKDAVLDGGIPFNKAYGMSAFEYHGTDPRFNRVFNEGMKNHSIIITKKLLESYKGFEGLGTLVDVGGGVGATVAAITAHYPTIKGINFDLPHVISEAPPFPGVTHVGGDMFQKVPSGDAILMKWILHDWSDEHCATLLKNCYDALPAHGKVVLVECILPVNPEATPKAQGVFHIDMIMLAHNPGGRERYEREFEALAKGAGFAAMKTTYIYANAWAIEFTK
notes: full length, 356 residues, vector pET200/D-TOPO, expressed in E. coli BL21 (DE3), Ni-NTA purified, tag removal not mentioned; dimer in solution (monomers also active)
B2: TaOMT2 (Triticum aestivum) (protein)
chain: B1 chain with I309V
notes: as for B1
B3: TaOMT2 (Triticum aestivum; W259A) (protein)
chain: B1 chain with W259A, I309V
B4: TaOMT2 (Triticum aestivum; G305S) (protein)
chain: B1 chain with G305S, I309V
B5: TaOMT2 (Triticum aestivum; D263N) (protein)
chain: B1 chain with D263N, I309V
B6: TaOMT2 (Triticum aestivum; E322I) (protein)
chain: B1 chain with I309V, E322I
B7: TaOMT2 (Triticum aestivum; W259Y) (protein)
chain: B1 chain with W259Y, I309V

Substrate: COc1cc(/C=C/C(=O)O)cc(O)c1O
Assay: radiometric methyltransferase assay with [3H]SAM, Lineweaver-Burk
Type: biochemical, Triticum aestivum
Conditions: co-substrate SAM (AdoMet) 1 mM, 30°C, 15 min
Description: radiometric methyltransferase assay with [3H]SAM, Lineweaver-Burk on TaOMT2

Row | Protein | Km [µM]
1 | B1 | 18.24 ± 1.72
2 | B2 | 270.98 ± 11.51

Substrate: O=c1cc(-c2cc(O)c(O)c(O)c2)oc2cc(O)cc(O)c12
Assay: purified protein
Conditions: co-substrate SAM (AdoMet) 1 mM, 30°C, 15 min

Row | Protein | Km [µM]
3 | B1 | 101.08 ± 9.68
4 | B2 | 59.51 ± 0.79

Same assay, conditions: co-substrate SAM, saturating

Row | Protein | Km [µM]
5 | B3 | 131.0
6 | B4 | 118.41
7 | B5 | 128.2
8 | B6 | 193.17
9 | B7 | 170.1
